Here are results for 14 variants from the supplement of paper PMC7125110.

B1: glmS ribozyme (parent)
chain: AUAAAAGCGCCAGAACUACAGAAAUGUAGUUGACGAGGAGGAGGUUUAUCGAAUUUUCGGCGGAUGCCUCCAAA

± gives the standard error. For some assays here: Fewer inactive variants are shown than the library holds. A value given as a limit tells only on which side of the number the result lay.

Details in all cases: with glucosamine-6-phosphate
Variants of B1 are the subject of series [1]. In words: kcat; higher = faster cleavage; RNA array. Summed up: (§1)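 Barcoded ribozyme variants on sequenced MiSeq chips were transcribed in situ by E. coli RNA polymerase and followed at 37 °C through a hybridised Cy3 probe. Glucosamine-6-phosphate at 40 μM to 10 mM in HEPES/KCl/Mg(OAc)2 buffer was flowed in, and tiles were imaged over ~14 h. Signals were normalised to baseline and to non-cleaving reference variants, and per-tile medians were fit to one- or two-exponential decays to give kobs. Weighted Michaelis–Menten fits across concentrations gave kcat and KM.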

Series [2] covers variants of B1. In words: self-cleavage kobs at 640 uM GlcN6P; higher = faster cleavage; RNA array. Summed up: as §1
Variants of B1 are the subject of series [3]. In words: self-cleavage kobs at 2500 uM GlcN6P; higher = faster cleavage; RNA array. Summed up:
as §1

Series [4] covers variants of B1. The series can be described thus: self-cleavage kobs at 10000 uM GlcN6P; higher = faster cleavage; RNA array. Summed up:
as §1

Variants of B1 are the subject of series [5]. In words: KM; higher = weaker cofactor use; RNA array. Summed up: as §1
The variants in series [6] derive from B1. The series can be described thus: self-cleavage kobs at 160 uM GlcN6P; higher = faster cleavage; RNA array. Summed up:
as §1

In series [7] the parent is B1. The series can be described thus: self-cleavage kobs at 40 uM GlcN6P; higher = faster cleavage; RNA array. Summed up: as §1

On to G40C C67A, for which the kcat with glucosamine-6-phosphate [1] amounted to 0.000136 ± 2.4e-05 s⁻¹. Moreover, in the series with glucosamine-6-phosphate [2], the “self-cleavage kobs at 640 uM GlcN6P” value stood at 6.63e-05 ± 1.2e-05 s⁻¹. The “self-cleavage kobs at 2500 uM GlcN6P” value with glucosamine-6-phosphate [3] is 0.000181 ± 2.9e-05 s⁻¹. In addition, the “self-cleavage kobs at 10000 uM GlcN6P” value with glucosamine-6-phosphate [4] was 0.000119 ± 1.3e-05 s⁻¹.

For G13A U31C, the kcat with glucosamine-6-phosphate [1] worked out at 0.00123 ± 0.00012 s⁻¹. In the series with glucosamine-6-phosphate [5], the KM came out at 4560 ± 740 µM. Also, the “self-cleavage kobs at 160 uM GlcN6P” value in the series with glucosamine-6-phosphate [6] came to 3.44e-05 ± 1.2e-05 s⁻¹. The “self-cleavage kobs at 640 uM GlcN6P” value with glucosamine-6-phosphate [2] turned out to be 0.000169 ± 3.3e-05 s⁻¹. In addition, the “self-cleavage kobs at 2500 uM GlcN6P” value with glucosamine-6-phosphate [3] is 0.000441 ± 6.9e-05 s⁻¹. Also, the “self-cleavage kobs at 10000 uM GlcN6P” value with glucosamine-6-phosphate [4] turned out to be 0.00084 ± 0.00011 s⁻¹.

With G13A C58G, the catalytic constant (kcat) with glucosamine-6-phosphate [1] was 0.000377 ± 8.6e-05 s⁻¹. In addition, the KM in the series with glucosamine-6-phosphate [5] turned out to be 7150 ± 2500 µM. Also, the “self-cleavage kobs at 640 uM GlcN6P” value with glucosamine-6-phosphate [2] amounted to 2.8e-05 ± 7.8e-06 s⁻¹. For the same variant, the “self-cleavage kobs at 2500 uM GlcN6P” value with glucosamine-6-phosphate [3] is 0.000101 ± 1.7e-05 s⁻¹. Also, the “self-cleavage kobs at 10000 uM GlcN6P” value with glucosamine-6-phosphate [4] was found to be 0.000217 ± 3.4e-05 s⁻¹.

As for G41C U54A, the catalytic constant (kcat) with glucosamine-6-phosphate [1] worked out at 8.93e-05 ± 2e-05 s⁻¹. In addition, the “self-cleavage kobs at 640 uM GlcN6P” value with glucosamine-6-phosphate [2] amounted to 7.27e-05 ± 1.6e-05 s⁻¹. Further, in the series with glucosamine-6-phosphate [3], the “self-cleavage kobs at 2500 uM GlcN6P” value worked out at 7.27e-05 ± 1.5e-05 s⁻¹. The “self-cleavage kobs at 10000 uM GlcN6P” value in the series with glucosamine-6-phosphate [4] came to 8.37e-05 ± 2.2e-05 s⁻¹.

As to C58A C70G, in the series with glucosamine-6-phosphate [1], the kcat was 5.06e-05 ± 4.7e-06 s⁻¹. The KM in the series with glucosamine-6-phosphate [5] is 91.6 ± 44 µM. The “self-cleavage kobs at 160 uM GlcN6P” value with glucosamine-6-phosphate [6] was 3.59e-05 ± 1.2e-05 s⁻¹. For the same variant, in the series with glucosamine-6-phosphate [2], the “self-cleavage kobs at 640 uM GlcN6P” value worked out at 3.65e-05 ± 1.3e-05 s⁻¹. In addition, in the series with glucosamine-6-phosphate [3], the “self-cleavage kobs at 2500 uM GlcN6P” value worked out at 5.19e-05 ± 1.1e-05 s⁻¹.

For A14G C50A, the kcat with glucosamine-6-phosphate [1] worked out at 7.1e-05 ± 2e-06 s⁻¹. In the series with glucosamine-6-phosphate [5], the KM was found to be 1890 ± 220 µM. Further, the “self-cleavage kobs at 2500 uM GlcN6P” value with glucosamine-6-phosphate [3] stood at 3.98e-05 ± 9.6e-06 s⁻¹. In addition, the “self-cleavage kobs at 10000 uM GlcN6P” value with glucosamine-6-phosphate [4] turned out to be 5.99e-05 ± 7e-06 s⁻¹.

Turning to A6U, the kcat with glucosamine-6-phosphate [1] was determined as 0.000447 ± 1.4e-05 s⁻¹. Also, the KM in the series with glucosamine-6-phosphate [5] was 2740 ± 150 µM. Moreover, in the series with glucosamine-6-phosphate [6], the “self-cleavage kobs at 160 uM GlcN6P” value came to 2.53e-05 ± 2.3e-06 s⁻¹. Moreover, the “self-cleavage kobs at 640 uM GlcN6P” value in the series with glucosamine-6-phosphate [2] came to 8.33e-05 ± 1.6e-06 s⁻¹. In the series with glucosamine-6-phosphate [3], the “self-cleavage kobs at 2500 uM GlcN6P” value is 0.00022 ± 4e-06 s⁻¹. Besides, the “self-cleavage kobs at 10000 uM GlcN6P” value in the series with glucosamine-6-phosphate [4] turned out to be 0.000346 ± 6.3e-06 s⁻¹.

As for U47G U69G, the kcat in the series with glucosamine-6-phosphate [1] came to 5.3e-05 ± 8.9e-06 s⁻¹. Further, the “self-cleavage kobs at 40 uM GlcN6P” value in the series with glucosamine-6-phosphate [7] is 4.11e-05 ± 9e-06 s⁻¹. The “self-cleavage kobs at 160 uM GlcN6P” value with glucosamine-6-phosphate [6] came to 5.87e-05 ± 1.3e-05 s⁻¹. Further, the “self-cleavage kobs at 640 uM GlcN6P” value in the series with glucosamine-6-phosphate [2] is 7.19e-05 ± 9.1e-06 s⁻¹. In addition, the “self-cleavage kobs at 2500 uM GlcN6P” value with glucosamine-6-phosphate [3] was 7.13e-05 ± 9.6e-06 s⁻¹. Further, in the series with glucosamine-6-phosphate [4], the “self-cleavage kobs at 10000 uM GlcN6P” value was found to be 4.09e-05 ± 5.2e-06 s⁻¹.

Consider C11U A33U, for which, in the series with glucosamine-6-phosphate [1], the kcat stood at 7.95e-05 ± 1.1e-06 s⁻¹. The KM with glucosamine-6-phosphate [5] is 1500 ± 99 µM. Moreover, the “self-cleavage kobs at 640 uM GlcN6P” value in the series with glucosamine-6-phosphate [2] stood at 2.29e-05 ± 1.1e-05 s⁻¹. Moreover, in the series with glucosamine-6-phosphate [3], the “self-cleavage kobs at 2500 uM GlcN6P” value was determined as 5.06e-05 ± 9.1e-06 s⁻¹. Also, the “self-cleavage kobs at 10000 uM GlcN6P” value with glucosamine-6-phosphate [4] is 6.9e-05 ± 5.3e-06 s⁻¹.

Regarding A64U C70U, in the series with glucosamine-6-phosphate [1], the kcat was found to be 0.00015 ± 1.9e-05 s⁻¹. In the series with glucosamine-6-phosphate [5], the KM is 1510 ± 510 µM. Moreover, the “self-cleavage kobs at 640 uM GlcN6P” value with glucosamine-6-phosphate [2] was found to be 5.13e-05 ± 5.8e-06 s⁻¹. For the same variant, in the series with glucosamine-6-phosphate [3], the “self-cleavage kobs at 2500 uM GlcN6P” value came to 7.86e-05 ± 8.2e-06 s⁻¹. For the same variant, the “self-cleavage kobs at 10000 uM GlcN6P” value with glucosamine-6-phosphate [4] was determined as 0.000139 ± 9.8e-06 s⁻¹.

As to C16G A39U, the kcat with glucosamine-6-phosphate [1] is 0.00424 ± 0.00089 s⁻¹. The KM with glucosamine-6-phosphate [5] came to 3090 ± 880 µM. Further, the “self-cleavage kobs at 40 uM GlcN6P” value with glucosamine-6-phosphate [7] stood at 6.4e-05 ± 7.3e-06 s⁻¹. Besides, the “self-cleavage kobs at 160 uM GlcN6P” value in the series with glucosamine-6-phosphate [6] is 0.000164 ± 2.2e-05 s⁻¹. Further, in the series with glucosamine-6-phosphate [2], the “self-cleavage kobs at 640 uM GlcN6P” value is 0.000895 ± 0.00011 s⁻¹. Further, the “self-cleavage kobs at 2500 uM GlcN6P” value in the series with glucosamine-6-phosphate [3] worked out at 0.00198 ± 0.00025 s⁻¹. For the same variant, the “self-cleavage kobs at 10000 uM GlcN6P” value with glucosamine-6-phosphate [4] stood at 0.00316 ± 0.00031 s⁻¹.

For the variant A12U U56G, the turnover number (kcat) with glucosamine-6-phosphate [1] stood at 0.0516 ± 0.013 s⁻¹. In addition, the KM with glucosamine-6-phosphate [5] is 1320 ± 390 µM. The “self-cleavage kobs at 40 uM GlcN6P” value with glucosamine-6-phosphate [7] was 0.00172 ± 0.0002 s⁻¹. For the same variant, the “self-cleavage kobs at 160 uM GlcN6P” value in the series with glucosamine-6-phosphate [6] came out at 0.00468 ± 0.00073 s⁻¹. In addition, in the series with glucosamine-6-phosphate [2], the “self-cleavage kobs at 640 uM GlcN6P” value was determined as 0.0197 ± 0.0057 s⁻¹. Besides, the “self-cleavage kobs at 10000 uM GlcN6P” value with glucosamine-6-phosphate [4] came out at 0.0461 ± 0.011 s⁻¹.

Consider C11U A15G, for which the kcat with glucosamine-6-phosphate [1] was 0.00211 ± 0.00043 s⁻¹. Besides, the KM with glucosamine-6-phosphate [5] was 1010 ± 320 µM. Besides, in the series with glucosamine-6-phosphate [7], the “self-cleavage kobs at 40 uM GlcN6P” value was 0.000103 ± 1.4e-05 s⁻¹. The “self-cleavage kobs at 160 uM GlcN6P” value in the series with glucosamine-6-phosphate [6] worked out at 0.000249 ± 4.3e-05 s⁻¹. For the same variant, in the series with glucosamine-6-phosphate [2], the “self-cleavage kobs at 640 uM GlcN6P” value turned out to be 0.000746 ± 8.9e-05 s⁻¹. For the same variant, the “self-cleavage kobs at 2500 uM GlcN6P” value in the series with glucosamine-6-phosphate [3] was 0.00141 ± 0.00022 s⁻¹. Moreover, the “self-cleavage kobs at 10000 uM GlcN6P” value in the series with glucosamine-6-phosphate [4] came out at 0.0023 ± 0.00037 s⁻¹.

Turning to G35A G38A, the kcat with glucosamine-6-phosphate [1] is less than 1e-05 s⁻¹.
